Patent US11433099B2, “Immunotherapy with B*08 restricted peptides and combination of peptides against cancers and related methods” (Immatics Biotechnologies GmbH, priority 2018, dated 2022)

Target: HLA-B*08:01 (Homo sapiens, UniProt P01889)
Assay: MHC binding assay (UV-ligand exchange, beta2m ELISA)
Details: MHC class I binding score; binding to HLA-B*08:01 ranged by peptide exchange yield (UV-ligand exchange, β2m ELISA)
Source text: Candidate peptides for T cell based therapies according to the present invention were further tested for their MHC binding capacity (affinity). The individual peptide-MHC complexes were produced by UV-ligand exchange, where a UV-sensitive peptide is cleaved upon UV-irradiation and exchanged with the peptide of interest as analyzed. Only peptide candidates that can effectively bind and stabilize the peptide-receptive MHC molecules prevent dissociation of the MHC complexes. To determine the yield of the exchange reaction, an ELISA was performed based on the detection of the light chain (β2m) of stabilized MHC complexes. The assay was performed as generally described in Rodenko et al. (Rodenko et al., 2006).
96 well MAXISorp plates (NUNC) were coated over night with 2 ug/ml streptavidin in PBS at room temperature, washed 4× and blocked for 1 h at 37° C. in 2% BSA containing blocking buffer. Refolded HLA-A*02:01/MLA-001 monomers served as standards, covering the range of 15-500 ng/ml. Peptide-MHC monomers of the UV-exchange reaction were diluted 100-fold in blocking buffer. Samples were incubated for 1 h at 37° C., washed four times, incubated with 2 ug/ml HRP conjugated anti-β2m for 1 h at 37° C., washed again and detected with TMB solution that is stopped with […]. Absorption was measured at 450 nm. Candidate peptides that show a high exchange yield (preferably higher than 50%, most preferred higher than 75%) are generally preferred for a generation and production of antibodies or fragments thereof, and/or T cell receptors or fragments thereof, as they show sufficient avidity to the MHC molecules and prevent dissociation of the MHC complexes.

Substance	Peptide exchange
144 (IEQIRAVL; listed as Homo sapiens) [compound 144]	++ (20% = ++)
145 (MIYRKALRL; listed as Homo sapiens) [compound 145]	++ (20% = ++)
146 (FQTAHFYL; listed as Homo sapiens) [compound 146]	+++ (50% = +++)
147 (HAMDGASHL; listed as Homo sapiens) [compound 147]	++ (20% = ++)
148 (DVNPVSLQL; listed as Homo sapiens) [compound 148]	++ (20% = ++)
149 (TQKSVQVL; listed as Homo sapiens) [compound 149]	++ (20% = ++)
150 (MRSSYIREL; listed as Homo sapiens) [compound 150]	++ (20% = ++)
151 (DRHLTNRVL; listed as Homo sapiens) [compound 151]	++ (20% = ++)
152 (FNKLVTEL; listed as Homo sapiens) [compound 152]	++ (20% = ++)
153 (HAIPHYVTM; listed as Homo sapiens) [compound 153]	++ (20% = ++)
154 (VLKTLQEL; listed as Homo sapiens) [compound 154]	++ (20% = ++)
155 (LPASFPAVL; listed as Homo sapiens) [compound 155]	++ (20% = ++)
156 (ILKEQSSSSF; listed as Homo sapiens) [compound 156]	++ (20% = ++)
157 (QPYRFPQA; listed as Homo sapiens) [compound 157]	++ (20% = ++)
158 (DVIIKGNGL; listed as Homo sapiens) [compound 158]	++ (20% = ++)
159 (DLRNKIIA; listed as Homo sapiens) [compound 159]	++ (20% = ++)
160 (LPINNTHI; listed as Homo sapiens) [compound 160]	++ (20% = ++)

Substance	Peptide exchange
161 (DIVPPFSAF; listed as Homo sapiens) [compound 161]	++ (20% = ++)
162 (LFKQTKINL; listed as Homo sapiens) [compound 162]	++ (20% = ++)
163 (EVMAQFKEI; listed as Homo sapiens) [compound 163]	++ (20% = ++)
164 (LPAPIPTLL; listed as Homo sapiens) [compound 164]	++ (20% = ++)
165 (QNSLRHNL; listed as Homo sapiens) [compound 165]	++ (20% = ++)
166 (VLSGGRILAL; listed as Homo sapiens) [compound 166]	++ (20% = ++)
167 (DMKITVSL; listed as Homo sapiens) [compound 167]	+++ (50% = +++)
168 (HVQDFTAF; listed as Homo sapiens) [compound 168]	++ (20% = ++)
169 (YELNNLHAL; listed as Homo sapiens) [compound 169]	++ (20% = ++)
170 (SPANVRGQSL; listed as Homo sapiens) [compound 170]	++ (20% = ++)
171 (FPSQVPKQVL; listed as Homo sapiens) [compound 171]	++ (20% = ++)
172 (PYEKVSRL; listed as Homo sapiens) [compound 172]	++ (20% = ++)
173 (YPLLKDPSL; listed as Homo sapiens) [compound 173]	+++ (50% = +++)
174 (HAMPSPRIL; listed as Homo sapiens) [compound 174]	++ (20% = ++)
175 (MRFQQFLFA; listed as Homo sapiens) [compound 175]	+ (0% = +)
176 (YVIQRQSVL; listed as Homo sapiens) [compound 176]	++ (20% = ++)
177 (SVPVRSSPL; listed as Homo sapiens) [compound 177]	++ (20% = ++)
